# Test results: patent US20110144312A1 (Kyowa Kirin, published 2011)
# T1: Biotin-SGSTYSIFSHFREYEIAIRKV-NH2 (human, N-terminal biotin, C-terminal amide (-NH2))
# T1 peptide: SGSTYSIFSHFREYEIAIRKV
# Experiments:
# [1] = target: T2, SNP variant L61V of human IL-10Rα extracellular domain fused to the Fc portion of human IgG1 (human); assay: ELISA with SNP variant Fc fusion
# T2 construct: The entry already holds the change and includes the signal peptide; also called L61I; L611
# [2] = target: T3, SNP variant V113I of human IL-10Rα extracellular domain fused to the Fc portion of human IgG1 (human); assay: ELISA with SNP variant Fc fusion
# T3 construct: The entry already holds the change and includes the signal peptide; also called V1131
# [3] = target: T4, SNP variant V233M of human IL-10Rα extracellular domain fused to the Fc portion of human IgG1 (human); assay: ELISA with SNP variant Fc fusion
# T4 construct: The entry already holds the change and includes the signal peptide
# Target sequence in this assay (chain, as listed by the source V233M V233M limits assumed): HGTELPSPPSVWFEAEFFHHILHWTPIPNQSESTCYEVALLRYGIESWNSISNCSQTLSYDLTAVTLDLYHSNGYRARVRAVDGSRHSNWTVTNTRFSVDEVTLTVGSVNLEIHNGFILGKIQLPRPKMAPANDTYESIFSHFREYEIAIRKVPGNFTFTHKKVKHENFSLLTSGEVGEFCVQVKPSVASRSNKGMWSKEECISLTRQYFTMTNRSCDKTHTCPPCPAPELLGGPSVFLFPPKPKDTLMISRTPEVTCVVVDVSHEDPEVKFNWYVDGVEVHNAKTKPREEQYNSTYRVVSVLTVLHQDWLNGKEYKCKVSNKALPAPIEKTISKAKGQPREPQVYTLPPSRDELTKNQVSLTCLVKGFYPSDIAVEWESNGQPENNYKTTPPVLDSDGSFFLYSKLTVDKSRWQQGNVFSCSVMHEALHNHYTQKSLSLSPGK
# [4] = target: T5, SNP variant R212E of human IL-10Rα extracellular domain fused to the Fc portion of human IgG1 (human); assay: ELISA with SNP variant Fc fusion
# T5 construct: The entry already holds the change and includes the signal peptide
# [5] = target: T6, SNP variant S159G of human IL-10Rα extracellular domain fused to the Fc portion of human IgG1 (human); assay: ELISA with SNP variant Fc fusion
# T6 construct: The entry already holds the change and includes the signal peptide
# [6] = target: T1, Biotin-SGSTYSIFSHFREYEIAIRKV-NH2; assay: dot blot on PVDF or nitrocellulose membrane
# [7] = target: T4, SNP variant V233M of human IL-10Rα …; assay: ELISA, coated SNP variant Fc fusion V233M [F]
# T3 sequence (chain, as listed by the source V113I V113I limits assumed): as the sequence (chain, as listed by the source V233M V233M limits assumed) above, with V92I, M212V counted along it
# T5 sequence (chain, as listed by the source R212E R212E limits assumed): as the sequence (chain, as listed by the source V233M V233M limits assumed) above, with R191E, M212V counted along it
# T2 sequence (chain, as listed by the source L61V L61V limits assumed): as the sequence (chain, as listed by the source V233M V233M limits assumed) above, with L40V, M212V counted along it
# T6 sequence (chain, as listed by the source S159G S159G limits assumed): as the sequence (chain, as listed by the source V233M V233M limits assumed) above, with S138G, M212V counted along it
binding result [1],binding result [2],binding result [3],binding result [4],binding result [5],binding result [6],binding result [7],Binder
binds,binds,binds,binds,binds,,,"136C5 (antibody, V domains shown, Hybridoma antibody, human IgG1, kappa light chain; also called human anti-human IL-10Rα monoclonal antibody 136C5; hybridoma deposit PTA-9131) VH: EVQLVESGGGLVQPGGSLRLSCAASGFTFSSYSMNWVRQAPGKGLEWVSYISTGSSTIYYADSVKGRFTISRDNAKNSLYLQMNSLRDEDTAVYYCARENYYGSGSYEDYFDYWGQGTLVTVSS VL: EIVLTQSPATLSLSPGERATLSCRASQSVSSYLAWYQQKPGQAPRLLIYDASNRATGIPARFSGSGSGTDFTLTISSLEPEDFAVYYCQQRSNWPIFTFGPGTKVDIK"
,,,,,no binding (tested: 5 µg/spot),binds,"136C8 (antibody, V domains shown, Hybridoma antibody, human IgG2, kappa light chain; also called human anti-human IL-10Rα monoclonal antibody 136C8; hybridoma deposit PTA-9132) VH: EVQLVESGGGLVQPGGSLRLSCAASGFTFSSYSMNWVRQAPGKGLEWVSYISTRSSTIYYADSVKGRFTISRDNAKNSLYLQMNSLRDEDTAVYYCARENYYGSGSYEDYFDYWGQGTLVTVSS VL: EIVLTQSPATLSLSPGERATLSCRASQSVSSYLAWYQQKPGQAPRLLIYDASNRATGIPARFSGSGSGTDFTLTISSLEPEDFAVYYCQQRSNWPIFTFGPGTKVDIK"
